Experimental data published in publication PMC8346517, “The intervening domain is required for DNA-binding and functional identity of plant MADS transcription factors” (Nature Communications, 2021).

Target: the molecule itself
Assay: crystal structure; SEP3 MI at 6 mg/ml, without DNA; 0.2 M potassium sodium tartrate, 0.1 M bis-tris propane pH 7.5, 20% PEG 3350, 4 °C; space group C222(1), dimers formed by crystallographic symmetry

B1: SEP3^MI (MADS-box and I domain of …3, residues 1-90) (domain or fragment)
chain: not shown
notes: His6-MBP fusion from the vector pETM41, cleaved with TEV protease; residues 1-18 and the 17 C-terminal residues are disordered in the crystal; also called SEP3 MI domain; source: E. coli BL21 Codon Plus, purified (Ni-NTA, heparin, TEV cleavage, Ni-NTA, heparin)
B1: binds.
